Measured values as given in paper PMC7305236.

What was measured:
[1] = biological target: ACKR3 C-terminally tagged with SmBiT (human) (UniProt P25106)
[2] = biological target: mu opioid receptor (MOR) C-terminally tagged with SmBiT (UniProt P35372)
[3] = biological target: delta opioid receptor (DOR) C-terminally tagged with SmBiT (UniProt P41143)
[4] = biological target: kappa opioid receptor (KOR) C-terminally tagged with SmBiT (UniProt P41145)
[5] = biological target: ACKR3 C-terminally tagged with SmBiT (human) (UniProt P25106); remark: listed apart in the source
[6] = biological target: atypical chemokine receptor ACKR3 (formerly CXCR7) (human) (UniProt P25106)
mouse ACKR3 (mouse) = mouse ACKR3 (mouse) (UniProt P56485)
Chain of mouse ACKR3 (mouse) (P56485 whole entry): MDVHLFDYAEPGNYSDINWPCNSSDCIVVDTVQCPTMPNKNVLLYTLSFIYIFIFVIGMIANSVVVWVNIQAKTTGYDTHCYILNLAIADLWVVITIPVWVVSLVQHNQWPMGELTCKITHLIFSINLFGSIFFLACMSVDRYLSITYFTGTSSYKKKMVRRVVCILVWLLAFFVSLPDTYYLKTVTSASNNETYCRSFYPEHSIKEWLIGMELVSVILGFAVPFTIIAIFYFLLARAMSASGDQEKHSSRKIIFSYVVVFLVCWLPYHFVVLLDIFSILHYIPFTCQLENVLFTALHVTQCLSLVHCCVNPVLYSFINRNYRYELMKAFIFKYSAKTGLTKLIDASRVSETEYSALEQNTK

Chain of ACKR3 C-terminally tagged with SmBiT (human) (P25106 whole entry): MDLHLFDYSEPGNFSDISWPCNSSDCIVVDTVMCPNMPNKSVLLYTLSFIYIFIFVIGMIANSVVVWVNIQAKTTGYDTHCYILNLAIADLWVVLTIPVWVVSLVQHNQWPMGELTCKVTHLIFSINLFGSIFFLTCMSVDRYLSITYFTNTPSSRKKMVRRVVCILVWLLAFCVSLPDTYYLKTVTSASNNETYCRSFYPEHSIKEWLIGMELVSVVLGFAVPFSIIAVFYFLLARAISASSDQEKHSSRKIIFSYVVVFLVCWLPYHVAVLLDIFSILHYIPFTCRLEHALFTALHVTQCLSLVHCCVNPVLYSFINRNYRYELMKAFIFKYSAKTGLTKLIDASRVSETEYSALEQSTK
Chain of mCXCL12 (P40224 22-93): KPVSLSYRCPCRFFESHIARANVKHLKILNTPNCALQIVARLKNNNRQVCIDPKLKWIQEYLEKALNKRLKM
Chain of atypical chemokine receptor ACKR3 (formerly CXCR7) (human) (P25106 whole entry): as the sequence (P25106 whole entry) above
Chain of CXCL12 (P48061 22-93): as the sequence (P40224 22-93) above, with I18V, L70F counted along it

| Substance | β-arrestin-1 recruitment (NanoBiT, U87 cells): EC50 [1] | β-arrestin-1 recruitment (NanoBiT, U87 cells): EC50 [2] | β-arrestin-1 recruitment (NanoBiT, U87 cells): EC50 [3] | β-arrestin-1 recruitment (NanoBiT, U87 cells): EC50 [4] | also measured |
| --- | --- | --- | --- | --- | --- |
| Adrenorphin (peptide) | 56.5 nM | 41.6 nM | 157 nM | 43.5 nM |  |
| Big Dynorphin (peptide) | 108 nM | 652 nM | 529 nM | 19.1 nM |  |
| CXCL12 (from UniProt P48061 22-93) (ligand) |  |  |  |  | β-arrestin recruitment to ACKR3 (Fig. 4b): EC50 [5]: 1.2 nM |
| Dynorphin A 1–13 (peptide) | 61.9 nM | 2000 nM | 319 nM | 2.5 nM |  |
| Dynorphin A 2–13 (peptide) | 6000 nM |  |  |  |  |
| Dynorphin A 2–17 (peptide) | 2000 nM |  |  |  |  |
| Dynorphin A (peptide) | 110 nM | 1500 nM | 240 nM |  |  |
| Dynorphin B (peptide) | 727 nM | 2000 nM | 158 nM | 10.9 nM |  |
| Endomorphin-2 (peptide) |  | 231 nM |  |  |  |
| Leumorphin (peptide) | 1320 nM |  | 3000 nM | 21.4 nM |  |
| Nociceptin 1–13 (peptide) | 10000 nM |  |  |  |  |
| [Phe1Ψ(CH2-NH)-gly2]nociceptin-(1–13)-NH2 (peptide) | 2970 nM |  |  |  |  |
| adrenorphin-derived peptide yggfmrrv (Daa) |  |  |  |  | Supplementary Table 4: EC50 of β-arrestin-1 recruitment to ACKR3, U87 cells [6]: > 10000 nM |
| mCXCL12 (from UniProt P40224 22-93) (ligand) |  |  |  |  | Supplementary Table 6: EC50 of β-arrestin-1 recruitment to mACKR3, U87 cells (mouse ACKR3 (mouse)): 3.32 nM |
| β-endorphin (peptide) |  |  | 441 nM |  |  |
